Patent US20170305994A1 (Novo Nordisk, published 2017)
Substitutions are numbered along the chain they refer to. Names and notes keep the numbering of the source. Read-outs that look alike come from different tables or passages of the source. Values belong to the binder of their own block, whether it stands above or below them.

How the values were obtained:
[1] = molecular target: T1, human DR3 (full length, on cells) (human, UniProt Q93038 25-417); experiment: cell-based or functional assay
T1 sequence: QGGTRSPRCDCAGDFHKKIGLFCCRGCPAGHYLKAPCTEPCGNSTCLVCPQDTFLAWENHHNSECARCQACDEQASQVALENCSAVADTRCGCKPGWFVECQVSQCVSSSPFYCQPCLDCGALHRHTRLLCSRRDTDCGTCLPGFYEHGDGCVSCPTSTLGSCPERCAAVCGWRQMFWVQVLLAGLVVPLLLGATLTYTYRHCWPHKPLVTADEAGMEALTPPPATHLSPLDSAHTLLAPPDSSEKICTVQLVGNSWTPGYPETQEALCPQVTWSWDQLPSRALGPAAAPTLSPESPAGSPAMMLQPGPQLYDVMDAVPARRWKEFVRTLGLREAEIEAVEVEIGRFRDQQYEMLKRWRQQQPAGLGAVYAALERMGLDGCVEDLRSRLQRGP

[2] = molecular target: T1, human DR3 (full length, on cells); experiment: cell-based or functional assay; remark: listed apart in the source
[3] = molecular target: T1, human DR3 (full length, on cells); experiment: cell-based or functional assay; remark: listed apart in the source
[4] = molecular target: T1, human DR3 (full length, on cells); experiment: cell-based or functional assay; remark: listed apart in the source
[5] = molecular target: T1, human DR3 (full length, on cells); experiment: flow cytometry on IL-12/IL-18/TL1A activated CD4+ T cells, 1 µg/ml
Experimental: (§1) Buffy Coats were obtained from normal healthy volunteers from Copenhagen University Hospital. CD4+ T cells were isolated through magnetic bead separation. Cells were activated with 2 ng/ml IL-12, 50 ng/ml IL-18 and 100 ng/ml TL1A (Flag-HIS-TEV-TL1A-produced at Novo Nordisk A/S) and cultured for 5 days. On day 5 cells were stained with 10, 5, 1, 0.5, 0.1 or 0.0001 μg/ml of the anti-DR3 mAb clones 0072, 0073, or 0077, or with Fab fragment clones 0087, 0088 and 0091. A secondary PE conjugated goat-anti-mouse (H+L) was used for detection.
as §1, with “Material and Methods: Buffy” for “Buffy”, “Copenhagen” for “Copenhagen University”, “0088 or” for “0088 and”, “detection. Samples were in duplicate. Staining intensity was evaluated by FACS.” for “detection.”

[6] = molecular target: T1, human DR3 (full length, on cells); experiment: as above; remark: listed apart in the source
Experimental: as §1
The greater observed MFI values of IgG treated compared with Fab treated cells was expected since the secondary (detecting) antibody (anti-IgG heavy and light chain) bound to both Fab and Fc parts of the full-length IgG antibody clones, but only to Fab parts of Fab clones (Table 9).

IFN-γ, TL1A-costimulated lymphocytes, Fab 0.003 µg/mL [1]: 131 ng/mL
IFN-γ, TL1A-costimulated lymphocytes, Fab 0.01 µg/mL [1]: 101 ng/mL
IFN-γ, TL1A-costimulated lymphocytes, Fab 0.03 µg/mL [1]: 108 ng/mL
IFN-γ, TL1A-costimulated lymphocytes, Fab 0.1 µg/mL [1]: 46 ng/mL
IFN-γ, TL1A-costimulated lymphocytes, Fab 0.3 µg/mL [1]: 51 ng/mL
IFN-γ, TL1A-costimulated lymphocytes, Fab 1.0 µg/mL [1]: 63 ng/mL
IC100 of inhibition of IFN-γ secretion, TL1A-costimulated RA synovial fluid cells [2]: ~0.1 µg/mL
IFN-γ, TL1A-costimulated RA SF cells, Fab 0.003 µg/mL [3]: 1790 pg/mL
IFN-γ, TL1A-costimulated RA SF cells, Fab 0.01 µg/mL [3]: 1640 pg/mL
IFN-γ, TL1A-costimulated RA SF cells, Fab 0.03 µg/mL [3]: 1360 pg/mL
IFN-γ, TL1A-costimulated RA SF cells, Fab 0.1 µg/mL [3]: 1170 pg/mL
IFN-γ, TL1A-costimulated RA SF cells, Fab 0.3 µg/mL [3]: 1300 pg/mL
IFN-γ, TL1A-costimulated RA SF cells, Fab 1 µg/mL [3]: 1250 pg/mL
B1: 0170 (humanized IgG1 Fab of 0072; HC T28A S49A Y91; LC Q3A T5A S60A M4) (Fab, V domains shown)
VH: EVQLVESGGGLVQPGGSLRLSCAASGFTFSNYDMSWVRQAAGKGLEWVSAFSSDGYTFYPGAVKGRFTISRENAKNSLYLQMNSLRAGDTAVYYCARHADYANYPVMDYWGQGTLVTVSS
VL: DIAMAQSPSSLSASVGDRVTITCRASKSVSTSGYSYMHWYQQKPGKAPKLLIYLASNLEAGVPSRFSGSGSGTDFTLTISSLQPEDFATYYCQHSRELPLTFGGGTKVEIK

IFN-γ, TL1A-costimulated lymphocytes, Fab 0.003 µg/mL [1]: 140 ng/mL
IFN-γ, TL1A-costimulated lymphocytes, Fab 0.01 µg/mL [1]: 105 ng/mL
IFN-γ, TL1A-costimulated lymphocytes, Fab 0.03 µg/mL [1]: 69 ng/mL
IFN-γ, TL1A-costimulated lymphocytes, Fab 0.1 µg/mL [1]: 52 ng/mL
IFN-γ, TL1A-costimulated lymphocytes, Fab 0.3 µg/mL [1]: 62 ng/mL
IFN-γ, TL1A-costimulated lymphocytes, Fab 1.0 µg/mL [1]: 40 ng/mL
IC100 of inhibition of IFN-γ secretion, TL1A-costimulated RA synovial fluid cells [2]: ~0.1 µg/mL
IFN-γ, TL1A-costimulated RA SF cells, Fab 0.003 µg/mL [3]: 1870 pg/mL
IFN-γ, TL1A-costimulated RA SF cells, Fab 0.01 µg/mL [3]: 1380 pg/mL
IFN-γ, TL1A-costimulated RA SF cells, Fab 0.03 µg/mL [3]: 1220 pg/mL
IFN-γ, TL1A-costimulated RA SF cells, Fab 0.1 µg/mL [3]: 1140 pg/mL
IFN-γ, TL1A-costimulated RA SF cells, Fab 0.3 µg/mL [3]: 1160 pg/mL
IFN-γ, TL1A-costimulated RA SF cells, Fab 1 µg/mL [3]: 1230 pg/mL
B2: 0171 (humanized IgG1 Fab of 0072 without back mutations) (Fab, V domains shown)
VH: B1 VH with A41T, A62S
VL: B1 VL with A3Q, A5T, A60S

IFN-γ, TL1A-costimulated lymphocytes, Fab 0.003 µg/mL [1]: 160 ng/mL
IFN-γ, TL1A-costimulated lymphocytes, Fab 0.01 µg/mL [1]: 163 ng/mL
IFN-γ, TL1A-costimulated lymphocytes, Fab 0.03 µg/mL [1]: 95 ng/mL
IFN-γ, TL1A-costimulated lymphocytes, Fab 0.1 µg/mL [1]: 69 ng/mL
IFN-γ, TL1A-costimulated lymphocytes, Fab 0.3 µg/mL [1]: 62 ng/mL
IFN-γ, TL1A-costimulated lymphocytes, Fab 1.0 µg/mL [1]: 48 ng/mL
IC100 of inhibition of IFN-γ secretion, TL1A-costimulated RA synovial fluid cells [2]: ~0.1 µg/mL
IFN-γ, TL1A-costimulated RA SF cells, Fab 0.003 µg/mL [3]: 1550 pg/mL
IFN-γ, TL1A-costimulated RA SF cells, Fab 0.01 µg/mL [3]: 1230 pg/mL
IFN-γ, TL1A-costimulated RA SF cells, Fab 0.03 µg/mL [3]: 1130 pg/mL
IFN-γ, TL1A-costimulated RA SF cells, Fab 0.1 µg/mL [3]: 1130 pg/mL
IFN-γ, TL1A-costimulated RA SF cells, Fab 0.3 µg/mL [3]: 992 pg/mL
IFN-γ, TL1A-costimulated RA SF cells, Fab 1 µg/mL [3]: 1060 pg/mL
B3: 0173 (humanized IgG1 Fab of 0072; HC T28A S49A Y91S; LC Q3A T5A S60A M4L) (Fab, V domains shown)
VH: B1 VH with Y104S
VL: B1 VL with M4L

fold response, DR3 reporter, 40 ng/ml TL1A + 0.1 microg/ml [4]: 5.8 fold
fold response, DR3 reporter, 40 ng/ml TL1A + 1 microg/ml [4]: 2.7 fold
fold response, DR3 reporter, 40 ng/ml TL1A + 10 microg/ml [4]: 2.1 fold
fold response, DR3 reporter, 40 ng/ml TL1A + 100 microg/ml [4]: 2.1 fold
fold response, DR3 reporter, no TL1A, 0.1 microg/ml [4]: 1 fold
fold response, DR3 reporter, no TL1A, 1 microg/ml [4]: 1 fold
fold response, DR3 reporter, no TL1A, 10 microg/ml [4]: 1 fold
fold response, DR3 reporter, no TL1A, 100 microg/ml [4]: 1 fold
MFI [5]: 500 MFI
MFI [6]: 500 MFI
B4: 0087 (Fab from papain cleavage of mAb 0072) (Fab, V domains shown)
VH: EVKLVESGGGLVKPGGSLKLSCSASGFAFSNYDMSWVRQTPEKRLEWVAAFSSDGYTFYPDSLKGRFTISRDNARNTLYLQMSSLGSEDTALYCCARHADYANYPVMDYWGQGTSVTVSS
VL: DIVLAQSPASLLVSLGQRATISCRASKSVSTSGYSYMHWYQQKPGQPPKLLIYLASNLESGVPARFSGSGSGTDFTLNIHPVEEEDAATYYCQHSRELPLTFGAGTMLELKR
notes: murine IgG1 Fab by papain cleavage
